According to the domain aggregation screens of Martell et al. (2025):

Assay: soluble fraction after stress (log2 fold change); higher = more stays soluble; pooled small domains, quantitative proteomics
Details: stress: 75 degC
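Note: 20 min heating vs room temperature control held 20 min.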

| Sequence | soluble fraction (log2) |
| --- | --- |
| HMVTDVDELEKLIQKVLDSNSSQVDEYRQGKEKVFGFFVGAVMKLTKGQADPDVVNQLLKEKLSGRK | -0.177 |
| HMVTDVDYSTFLSQVEEGKVESVTIEDGEILFKGKDENGEARWYITGEMNDPNLVERLKDKVPSFNAPA | 0.194 |
| HMVTIYQRIMLVLEDKQVSVNALSKLVDMSQTTLNTQLKGERTLSANVVAKVLVAYPDVSAEWLMRGVGTM | -0.96 |
| HMVTLYDGFLSELRKRIPRGAELTNTLVDMLYIEREAVYRRLRGEVPFTFIEVMTVSKELGISLDNLAQA | -1.38 |
| HMVTTADIILEFYSRNPNATLTQAAQHVARATGTTYSRQAISAQLKRLEVAGLVERNGHVTV | -0.226 |
| HMVTTLLIINVAGKVKNPGVYQLPPGSRVVDALEAAGQQLKGVDISDINLARVLVDGEQILIGSN | -2.5 |
| HMVTVQEGETLSAIAARSGVSVKDLVRANEIRNPDSIQEGQVLFVP | 0.115 |
| HMVVADFQNYTVKPKENLYSLTKTSGLSQEELVALNPELKNGVQEGMVIKLPAAVKLMAQPE | 0.201 |
| HMVVLPGEVLRINVIQEGKEHGQGVGYMDDGTMVVIENGREFIGEYMEVNVTKVLQTAAGRMIFGRVD | -2.31 |
| HMVVLPPTEDAPEWAQVFDRLGRPESADGYKLPVPEGADPAFAKLASAKMHELGLSAKQGAALAAWWNEQA | 0.0475 |
| HMVVMEIGANGSEVVKLQKRLNQLGYYTEHASGVYDVKTASAVNEFQRQNELNATGKADYTTLDMIYNQ | -0.00159 |
| HMVVRRLPFGFSKRFGVLVVPGTSNPVELLYREDASMQSLLEARRVVAQPVAFKKTDVESFNAQLARAHEN | -1.66 |
| HMVVSDSAEIDKIVQDVIAANPKAIEDFKSGKTNVTGWLMGQVMKLSHGKANPKQATEILNKYLSK | 0.513 |
| HMVVTRVKAIDVVNIRKSDSETADKLGKAAVGDEFDLLEKKGNGWSKISYEGGEAYIKSEFLEPSE | 0.602 |
| HMVVVMEKNASSAEIEQVQERLRQAGFKIHLSQGVERTIIGAIGDRSQVDLGFLEALPGVEKVVPIMK | 0.171 |
| HMVVYFGGPVMLERGIVLHTPDISTKGTINVSDDFALTAHKEILDNINKDTSSLQFKLAIGH | -0.616 |
| HMVWINIRDLSDLFSKSGKSENSKNILDLQTLKIEKLLGGGQINTPYTIKVKQATPSAIEKVKQAGGEVIL | -0.104 |
| HMVWPETEAIVTEDFIGKKRSEVQQEGVIFEFFGEGDMVIDQLPRGGVTLNESGRVWIYLGEDTF | -0.78 |
| HMVYFAKNIRHLRRLRGMSQELLAAELDITRARLGAYEESRSEPPLHLLIKISEFFKLPVDIIVKNDLTKS | -4.88 |

| Sequence | soluble fraction (log2) |
| --- | --- |
| HMVYFDDEELDRFAGRAADSYTSDETDEFRDVMLTLLPADVMPWTQSIEMRGILLPEQLRDELLML | -0.391 |
| HMVYVPTKAEVSQQFQDASKARFDERYAIVELADGRRTMAPLAFLTKADHAWLKQLASTSPLPKGK | -0.16 |
| HMWAQSVSLHGLLGRQALLIVDGKPPRAVAPGQTHLGVTVLSTDEDRAVVALAGGQRLTLRVGESPVSVG | -1.51 |
| HMWMEKEELLWNDIIRGGVERGELREDTDIQEAAALFRQVFIGLAYQMSFSDGLDVGILRKRFHHIYGLLT | -0.173 |
| HMWNKGETKIPTQAQNELIKRRQAGATWTSLSEWLKATYGIDIHRTNIQRWYDKEVYLDQEN | -0.531 |
| HMWNPVLVVRGDFPKDLATTLLKMIFAQKEALNPHILFQNLLRTDNITFRESYPYHSASKTMFRF | -0.276 |
| HMWPQIAGFADRFGLSDTERRIVTLMSHGRSRKIIASTLGYSQNTIRNYTRNIYAKAGVHSKQELLDLLDP | -1.96 |
| HMWPTPRTWSALMNELNLYKENHGYANIVDIPSEKIRRMADGIIGEDMAVRYVAFLQSHASS | -1.7 |
| HMWQKGEPAITGLKRISKPGLRIYSKNDELPIVYGNRGIAVISTNKGVMTGIEAKRSGVGGEVLFYV | -0.112 |
| HMWSAREQVVNSLREAILTSELKAGERLVLSDLSARLGVSVTPIREALQSLEREGLVQLMPHQEAVVV | 0.18 |
| HMWVETITTKAGITKYKFQERYTDTYSGKTKRVSVTYTSNSRQAYKLAQAELQKKIDLATNTD | -0.638 |
| HMYAHLGKNLEVVINKALAQEDPEKKAGFAHHIAYYMKLAYSNWHKELVHDDAIRSELDTITGGELEFSN | 0.609 |
| HMYAHTPEMEAMNELGLEPPVTLDEIKKTYKTLVKKYHPDHNKEDPEAEEKLKKVNMAYTILKVAYTEFEK | -0.246 |
| HMYALGIPVSQYRRTTQVLGHESSYPIAYEDEKQDDDFYLFKFPNIDEYDFKKIVILLKQNGITT | -2.11 |
| HMYDNTVTKYVNSLSVYVRKGPSTSDEIVTSLIKDTDVTVVGENGEWYKIKYKEFEGYIYKNLLSDNKT | -1.91 |
| HMYDRIKLLKLREKRGLTQYELAEKAGISVVTLNKIETSDMAKPFASTLKKIALALGVGIEELS | -2.2 |
| HMYEDGGAFLKAEREKYGLTLTDIYEHTHIPVRKLKAYEMHEEEMPDRTRALLELYFDQVAYEYES | -0.734 |
| HMYEDIDSAYRILEINSTVSNQEIKNAYRRMAKKYHPDKVAHLGVEHQKGAEEKFKKVQEAYILIKKRRG | -0.918 |
| HMYEENFSKIKNDISTIFKRHKISFTNNFISHLSSVFNTDSLTNKMELEKLDSFLINNKKVTENELLKFII | -0.0789 |
